From the supplement of paper PMC7125110
± gives the standard error. For part of these data: Fewer inactive variants are shown than the library holds.

B1: glmS ribozyme (parent)
chain: AUAAAAGCGCCAGAACUACAGAAAUGUAGUUGACGAGGAGGAGGUUUAUCGAAUUUUCGGCGGAUGCCUCCAAA

Key:
Details in all cases: with glucosamine-6-phosphate
glucosamine-6-phosphate [1] = variants of: B1; test: kcat; higher = faster cleavage; RNA array
In short: (§1)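 Tiles bearing barcoded ribozyme variants, transcribed in situ by E. coli RNA polymerase on sequenced MiSeq chips, were imaged over ~14 h at 37 °C using a hybridised Cy3 probe. Glucosamine-6-phosphate was supplied at 40 μM to 10 mM in HEPES/KCl/Mg(OAc)2 buffer. kobs came from one- or two-exponential decay fits to normalised per-tile medians, and weighted Michaelis–Menten fits then provided kcat and KM.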

glucosamine-6-phosphate [2] = variants of: B1; test: self-cleavage kobs at 40 uM GlcN6P; higher = faster cleavage; RNA array
In short: as §1

glucosamine-6-phosphate [3] = variants of: B1; test: self-cleavage kobs at 640 uM GlcN6P; higher = faster cleavage; RNA array
In short: as §1

glucosamine-6-phosphate [4] = variants of: B1; test: self-cleavage kobs at 160 uM GlcN6P; higher = faster cleavage; RNA array
In short: as §1

glucosamine-6-phosphate [5] = variants of: B1; test: self-cleavage kobs at 10000 uM GlcN6P; higher = faster cleavage; RNA array
In short: as §1

glucosamine-6-phosphate [6] = variants of: B1; test: KM; higher = weaker cofactor use; RNA array
In short: as §1

glucosamine-6-phosphate [7] = variants of: B1; test: self-cleavage kobs at 2500 uM GlcN6P; higher = faster cleavage; RNA array
In short: as §1

Variant | kcat (glucosamine-6-phosphate [1]) [s⁻¹] | self-cleavage kobs at 40 uM GlcN6P (glucosamine-6-phosphate [2]) [s⁻¹] | self-cleavage kobs at 640 uM GlcN6P (glucosamine-6-phosphate [3]) [s⁻¹] | self-cleavage kobs at 160 uM GlcN6P (glucosamine-6-phosphate [4]) [s⁻¹] | self-cleavage kobs at 10000 uM GlcN6P (glucosamine-6-phosphate [5]) [s⁻¹] | KM (glucosamine-6-phosphate [6]) [µM] | self-cleavage kobs at 2500 uM GlcN6P (glucosamine-6-phosphate [7]) [s⁻¹]
G41C C68U | < 1e-05 | < 1e-05 | < 1e-05 |  |  |  | 
A33G A36C | 1.58e-05 ± 7.1e-06 | < 1e-05 | < 1e-05 | < 1e-05 | < 1e-05 |  | 
U45G U55A | 0.00686 ± 0.00089 | 0.000186 ± 4e-05 | 0.00187 ± 0.00028 | 0.000513 ± 7.7e-05 | 0.00606 ± 0.0012 | 1800 ± 330 | 0.00385 ± 0.00058
U30C C61G | 1.42e-05 ± 1.3e-06 |  |  |  |  |  | 
G37C G60A C68U | 1.98e-05 ± 7.3e-06 |  |  |  |  |  | 
C16U U55G C68U |  | 0.000134 ± 2.4e-05 | 0.00106 ± 0.0003 | 0.000342 ± 0.00016 | 0.00354 ± 0.00087 | 507 ± 230 | 0.00118 ± 0.00028
C61A A64G | < 1e-05 | < 1e-05 |  |  |  |  | 
G44C U46A | 7.73e-05 ± 1.3e-05 | < 1e-05 |  |  | 7.15e-05 ± 9.9e-06 |  | 0.000108 ± 2.5e-05
G32U U65G | 0.00128 ± 0.00061 | < 1e-05 |  |  | 9.34e-05 ± 1.3e-05 |  | 2.49e-05 ± 1.1e-05
G44U A64G | 0.000112 ± 2.4e-05 |  | 9.74e-05 ± 4.6e-05 |  | 9.64e-05 ± 1.3e-05 |  | 5.94e-05 ± 1.4e-05
C50A C61U C70U | 3.88e-05 ± 1.2e-05 |  |  |  |  |  | 
A12C U65C | 0.00043 ± 7.3e-05 |  | 0.000102 ± 1.9e-05 |  | 0.000343 ± 6.2e-05 | 1950 ± 620 | 0.000328 ± 8.4e-05
U54G G66A | 0.0134 ± 0.0022 | 0.000427 ± 4.8e-05 | 0.00385 ± 0.00097 | 0.00123 ± 0.00022 | 0.0132 ± 0.0016 | 1380 ± 320 | 0.00659 ± 0.0015
A48U U55G | 0.000482 ± 2.4e-05 |  | 7.42e-05 ± 2.3e-05 |  | 0.000359 ± 4.8e-05 | 3300 ± 360 | 0.000226 ± 5.6e-05
A48U U55C | 0.000437 ± 6.5e-05 |  | 0.000116 ± 2.5e-05 |  | 0.000378 ± 6.8e-05 | 2190 ± 650 | 0.000214 ± 3.6e-05
G13C U69C | 7.75e-05 ± 1.1e-05 |  | 7.04e-05 ± 2.6e-05 |  | 8.36e-05 ± 1.7e-05 |  | 5.9e-05 ± 1.8e-05
A53G A64C | 0.000207 ± 2.2e-05 |  | 5.95e-05 ± 9.6e-06 |  | 0.000181 ± 1.9e-05 | 1870 ± 470 | 0.000109 ± 1.4e-05
A52U A53G | 0.000144 ± 7.6e-06 | < 1e-05 | 3.11e-05 ± 1.3e-05 |  | 0.000111 ± 1e-05 | 2980 ± 430 | 6.31e-05 ± 9.5e-06

Variant | kcat (glucosamine-6-phosphate [1]) [s⁻¹] | self-cleavage kobs at 40 uM GlcN6P (glucosamine-6-phosphate [2]) [s⁻¹] | self-cleavage kobs at 640 uM GlcN6P (glucosamine-6-phosphate [3]) [s⁻¹] | self-cleavage kobs at 160 uM GlcN6P (glucosamine-6-phosphate [4]) [s⁻¹] | self-cleavage kobs at 10000 uM GlcN6P (glucosamine-6-phosphate [5]) [s⁻¹] | KM (glucosamine-6-phosphate [6]) [µM] | self-cleavage kobs at 2500 uM GlcN6P (glucosamine-6-phosphate [7]) [s⁻¹]
G41U U47A | 0.000627 ± 0.00021 | 7.19e-05 ± 1.3e-05 | 0.000232 ± 5.2e-05 | 0.000127 ± 3.9e-05 | 0.000706 ± 0.00012 |  | 0.000656 ± 0.00012
C16G U30C | 0.000111 ± 8.3e-06 |  | 5.29e-05 ± 9.6e-06 |  | 0.000109 ± 1.3e-05 | 763 ± 200 | 7.58e-05 ± 1.2e-05
A39U U69G | 6.87e-05 ± 1e-05 |  | 4.85e-05 ± 1.5e-05 |  | 7.29e-05 ± 1.5e-05 |  | 4.76e-05 ± 1.3e-05
G29C U47C | 0.000131 ± 7.3e-06 |  | 3.72e-05 ± 1.8e-05 |  | 0.000112 ± 2.7e-05 | 1730 ± 250 | 7.73e-05 ± 1.5e-05
U30G C58A | 0.000335 ± 5.6e-05 |  | 7.21e-05 ± 8.3e-06 |  | 0.000293 ± 5e-05 | 2550 ± 710 | 0.000154 ± 1.8e-05
A48U U69C | 0.000248 ± 8.5e-06 |  | 7.15e-05 ± 1e-05 |  | 0.000215 ± 2.7e-05 | 1640 ± 120 | 0.000147 ± 1.8e-05
C11A A12C G32U C50G |  | 0.000123 ± 3.9e-05 |  |  | 0.000269 ± 6.1e-05 |  | 
U46G U54C |  | 0.00019 ± 3.4e-05 |  |  | 0.00687 ± 0.0018 |  | 
G37U C70G | 2.07e-05 ± 8.5e-06 |  |  |  |  |  | 
G29U U47C | 0.000228 ± 1.3e-05 |  | 8.08e-05 ± 1.4e-05 | 4.21e-05 ± 1.6e-05 | 0.000206 ± 1.8e-05 | 1050 ± 180 | 0.00017 ± 2.9e-05
A15U G32U | 0.00104 ± 0.0003 |  | 0.000103 ± 1.2e-05 |  | 0.000628 ± 6.4e-05 | 6790 ± 2800 | 0.000266 ± 2.9e-05
C50A C70A | 4.02e-05 ± 1.1e-05 |  | 3.8e-05 ± 1.3e-05 | 3.47e-05 ± 1.5e-05 |  |  | 5.27e-05 ± 1e-05
U30A G32U | 0.000735 ± 0.00018 |  | 7.63e-05 ± 1.5e-05 | 3.89e-05 ± 1.7e-05 | 0.000475 ± 9.5e-05 | 4830 ± 1700 | 0.000275 ± 4.2e-05
A12U G38A | < 1e-05 |  |  |  |  |  | 
C50U U57C | < 1e-05 | < 1e-05 |  | < 1e-05 |  |  | 
U46G U47A | 0.0123 ± 0.0053 |  | 0.00231 ± 0.00046 | 0.00128 ± 0.00029 | 0.0106 ± 0.0026 |  | 0.00836 ± 0.0038
G37C C70U | 2.69e-05 ± 6.4e-06 |  | 2.26e-05 ± 9.4e-06 |  | 3.18e-05 ± 7.2e-06 |  | 1.7e-05 ± 5.8e-06
